Literature values in PMC4464844.

Assays:
Tyr9 [1] = target: Tyr9 (UniProt position 9, KPKLHYFNARG)
Tyr9 [2] = target: Tyr9 (UniProt position 9, KPKLHYFNGRG)
Tyr9 [3] = target: Tyr9 (UniProt position 9, RPKLHYPNGRG)

## Glutathione transferase A1-1 (hGSTA1-1) (Homo sapiens)
Tyr9 [1]
  pKa: 8.1

## Glutathione transferase A1-1 GIMFhelix mutant (Homo sapiens; A12G;L107I;L108M;V111F;residues 208-222 replaced by the GSTA4-4 sequence)
Tyr9 [2]
  pKa: 7.3

## Glutathione transferase A4-4 (hGSTA4-4) (Homo sapiens)
Tyr9 [3]
  pKa: 6.7
